The record followed here is the nanobody polyreactivity screen of Harvey et al. (2022).

This data set is described as follows: yeast display, Sf9 membrane polyspecificity reagent, FACS + sequencing; frameworks hold sequencing errors. The gist of the method:
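Genes from sorted yeast were amplified by colony PCR, read by MiSeq 2 × 250 sequencing and filtered on CDR length. These cells carried a synthetic nanobody library in Saccharomyces cerevisiae BJ5465 and were sorted by FACS into low and high (top ~1%) gates on anti-HA and streptavidin fluorescence. Polyreactivity is labelled according to the gate of origin.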
For “QVQLVESGGGLVQAGGSLRLSCAASMGLYRQAPGKERDLVATITSDAGTNYADSVKGRFTISRDNAKNTVYLQRNSLKPEDTAVYYCNADGYDSSDFGEGDYWGQVTQVTVSS”, the “polyreactivity (PSR sort gate)” value is on record as “low polyreactivity”.

With “QVQLVESGGGLVQAGGSLRLSCAASMGWYRQAPGKERELVAITRTTRTYYADSVKGRFTISRDNAKNTVYLQMNSLKPVDTAVYYCAAPNGPSPYWYNYWGQGTQVTVSS”, the “polyreactivity (PSR sort gate)” value is given as “low polyreactivity”. For “QVQLVESGGGLVQAGGSLRLSCAASPLTFRYYDMGWYRQAPGKERELVAAISRTGRTNYADSVKGRFTISRDNAKNTVYVQMNSLKPEDTAVYYCAATGIYAKALLWYDYWGQGTQVTVSS” the value was “high polyreactivity”; for “QVQLVESGGGLVQAGGSLRLSCAASRFIFSWYAMGWYRQAPGTERELVATISSSGGRTHYADSVKGRFTISRDNAKNTVDLHMKSLKPEVTEVYYCAAHPFYYFTTVYYWGQGTQVTVSS”, “high polyreactivity”. For “QVQLVESGGGLVQAGGSLRLSCAASRGIFGYNAMGWYRQAPGKERELVARISSSGGSTYYADSVKGRFTISRDNAKNTVYLQMNSLKPEDTAVYYCNTASNRYPGWRAEFDYWGQGTQVTVSS” the value was “low polyreactivity”; for “QVQLVESGGGLVQAGGSLRLSCAASRIFFNGYAMGWYRQAHGSERELVAAITVSGGRTFYADSVKGRFTISRDNAKNTVYLQMNSLKPEDTAVYYCNAVPRRVRLYDYWGQGTQVNVSS”, “high polyreactivity”; for “QVQLVESGGGLVQAGGSLRLSCAASRITFYPNDMGWDRQAPGKERELVAAITTNDGDTYYADSVKGRFTISRDNAKNTVYLQMISLQPEDTAVYYCAADSGSTSEYEYLGQGTQVTVSS”, “low polyreactivity”. With “QVQLVESGGGLVQAGGSLRLSCAASRLTFQDYAMGWYRQAPGKERELVAGISRSGGRTNYADSVKGRFTISRDNAKNTVYLQMNSLKPEDTAVYYCATPYRRLNTWIYDYWGQGTQVTVSS” the entry was “high polyreactivity”. On to “QVQLVESGGGLVQAGGSLRLSCAASRLTFQQYAMGWYRQAPGKERELVAAITSDGASTNYADSVKGRFTISRDYAKNTVYLQMNSLKPEDTAVYYCAARRRSRQYRYDYWGQGTQVTVSS”, for which the “polyreactivity (PSR sort gate)” value is given as “high polyreactivity”. For the sequence “QVQLVESGGGLVQAGGSLRLSCAASRNIFRYYVMGWYRPAPGKEREFVAAISYRAGSTYYADSVKGSFTISRDNAKNTVYLQMNSLKPEDTAFYYCNAERTRDFYEYDYWGQGTQVTVSS”, the “polyreactivity (PSR sort gate)” value was “low polyreactivity”. For “QVQLVESGGGLVQAGGSLRLSCAASRNTFVPYVMGWYRQAPGKERELVAAISRRGGSTRYADSVKGRFTISRDNAKNTVYLQMNSLKPEDTAVYYCAAKRKSYYSYNFDYWGHGTQVTVSS” the value was “high polyreactivity”; for “QVQLVESGGGLVQAGGSLRLSCAASRSIFDLYAMGWYRQAPGKEREFVAAITWRGSSTYYADSVKGRFTISRDNAKNNVYLQMNSLKPEDTAVYYCAATHNQVVARYAFIYWGQGTQVTVSS”, “high polyreactivity”. Turning to “QVQLVESGGGLVQAGGSLRLSCAASRSIFGTYAMGWYRQAPGKERELVAAISYSGGSTYYADSVKGRFTISRDNGKYTVYLQMNSLKPEDTAVYYCNKSRFYWGYYWGQGTQVTVSS”, the “polyreactivity (PSR sort gate)” value was “low polyreactivity”. With “QVQLVESGGGLVQAGGSLRLSCAASRSIFRSYAMGWYTQAPGKERELVAAITSSSGSTYYADSVKGRFTISRDNAKNTVYLQMNSLKPEDTAVYYCNAPYWKSRFRAYYHWGQGTQVTVSS” the entry was “high polyreactivity”; with “QVQLVESGGGLVQAGGSLRLSCAASRSTFVRNAMGWYREAPGKESELVAASSNVGSTYYADSVKGRFTISRDTAKNTVYFQMNILKPEDTAVYYCTKQLWYHKFNYWGQGTQVTVSA”, “low polyreactivity”. For “QVQLVESGGGLVQAGGSLRLSCAASRSTFYRYTMGWYIQAPGKERELVADITGSGGRTYYADSVKGRFTISRDNAKNTVYLQMNSLIPEDTAVYYCNAAYVWYRARAGSEDYWGQGTQVTVSS” the value was “high polyreactivity”; for “QVQLVESGGGLVQAGGSLRLSCAASSIFPSNAMGLYRPAPGKERELVAAISSGGSTNYADSVKGRFTISRDNAKNTVYLQMNSLKPEDTAVYYCAAVRYYRRRTGSYYHYDYWGQGTQVTVSS”, “low polyreactivity”; for “QVQLVESGGGLVQAGGSLRLSCAASVFIFAIYAMGWYRQAPGKERELVADINSDGSTYYADSVKGRFTISRDNAKNTVYLQMNSLKPEDTAVYYCNAETAGHDMDYWGQGTQVTVSS”, “low polyreactivity”.

As to “QVQLVESGGGLVQAGGSLRLSCAASVFIFGTNAMGWYRQAPGKERELVASISSTGGSTYYADSVKGRLTISRDNAKNTVYLQMNSLIPEDNAVSFCASDHYPEYIRYVPGVDYWGQGTQVTVSS”, the “polyreactivity (PSR sort gate)” value was “low polyreactivity”.

For “QVQLVESGGGLVQAGGSLRLSCAASVFIFGYYAMGWYRQAPGKERELVADISWSGVSTYYADSVKGRFTISRDNAKNTVYLQMNSLKPEDNAVYYCAVGYVLTGVFQARFDYWGQGTQVTVSS”, the “polyreactivity (PSR sort gate)” value was “high polyreactivity”. With “QVQLVESGGGLVQAGGSLRLSCAASVFLPYTMGWYRQAPGKERELVAAITRGGSTYYADSVKGRFTISRDNAKNTVYLQMNSLKPEDTAVYYCAKRSTFAWRGYDYWGQGTEVTVSS” the entry was “high polyreactivity”. Consider “QVQLVESGGGLVQAGGSLRLSCAASVFTFPPYAMGWYRQAPGKERELVAAISSAGSTKYADSVKGRFTISRDNAKNTVYLQMNSLKPEDTAVYYCAARWARSYDYWGQGTQVTVSS”, for which the “polyreactivity (PSR sort gate)” value is given as “low polyreactivity”.

With “QVQLVESGGGLVQAGGSLRLSCAASVFTFSRYAMGWYRQAPGKERELVAAITRGGGNTYYADSVKGRFTISRDNAKNTVYLQMHSLNPEDTAVFYCNAQVGNFGYRSGGYDYWGQGTQVTVSS”, the “polyreactivity (PSR sort gate)” value is “high polyreactivity”. For “QVQLVESGGGLVQAGGSLRLSCAASVFTLWLNAMGWYRQAPGKERELVAAITTSDDGTYYADSVKGRFTISRDNAKNTVYLQMNSLKPEDTAVYYCAADYYSVLYDYWGQGTQVTVSS” the value was “low polyreactivity”; for “QVQLVESGGGLVQAGGSLRLSCAASVGIYSQNVRGWYRQAPGKEWELVAAISRRGGRTYYADSVKGRFKISRDNAKNTVYLQMNSLKPEDTAVYYCATLSPERRVYYTYSGLFEYWGQGTQVTVSS”, “high polyreactivity”; for “QVQLVESGGGLVQAGGSLRLSCAASVIIFTRYAMGWYRQATGKERELVAGITRRGGSTYYADSVKGRFTISRDNAKNTVYLQMKSLKPEDTAVYYCNTYQRDYPYGVEDDSWGQGTEVTVSS”, “high polyreactivity”.

With “QVQLVESGGGLVQAGGSLRLSCAASVITFGRNTMGWYRQAPGKERELVAAISWNGDSTYYADSVKGRFTISRDNAKNTVYFQMNSLKPEDTAVYFCNADDVFLYQTDGLGDYWGQGTQVTVSS”, the “polyreactivity (PSR sort gate)” value is reported as “low polyreactivity”. In the case of “QVQLVESGGGLVQAGGSLRLSCAASVLIMGYYAMGWYRQAPGKERELVAAISSTGSTNYADSVKGRFTISRDNAKNTVYLQMNTLKQEDTAVYYCAAVPPRKDYQHMDYWGQGTQVTVSS”, the “polyreactivity (PSR sort gate)” value was “low polyreactivity”.

As to “QVQLVESGGGLVQAGGSLRLSCAASVRISVFNAMGWYRKPPGKESELVAGISNGGSTNYADSVKGRFTISRDNAKNTVYLQMNSLKPEDTAVYYCANDEPKVCRAFDYWGQGTQVTVSS”, the “polyreactivity (PSR sort gate)” value was “low polyreactivity”. For “QVQLVESGGGLVQAGGSLRLSCAASVRTFWYNAMGWYRQAPGKERELVAVISSGAITYYADSVKGRFTISRDNAKNTVYLQMNSLKPEDTAVYYCNAQRRGTYYWGQGTQVTVSS” the value was “high polyreactivity”; for “QVQLVESGGGLVQAGGSLRLSCAASVSIFGVKVMGWYRQAPGKERELVAAIDVSDTSTYYADSVKGRFTISRDNAKNTVYLQMNSLKAEDTAVYYCAARRTRYPFQFDYWGQGTQVTVSS”, “low polyreactivity”.

As to “QVQLVESGGGLVQAGGSLRLSCAASVSIFKVNAMGWYRQAPGKERELVAAISTSGSRTYYADSVKGRFTISRDNAKNTVYLQMNSLKPEDTAVYYCADDSYAGIVRYGYWGKGTQVTVSS”, the “polyreactivity (PSR sort gate)” value was “high polyreactivity”. Consider “QVQLVESGGGLVQAGGSLRLSCAASVSNFPPYVMGWYRQAPGKERELVAAITWSSGSTYYADSVKGRFTISRDNAKNTVYLQMNRLKPEDTAVYYCAAVLPFKYDYWGQGTQVTVSS”, for which the “polyreactivity (PSR sort gate)” value is on record as “low polyreactivity”. For “QVQLVESGGGLVQAGGSLRLSCAASVSTFAYYAMGWYRQAPGKERELVAVISVSGDGTSTYYADSVKGRFTISRDNAKNTVYLQMNSLKPEDTAVYNCAAEQVLVGGHTYYLTYDYWGQGTQVTVSS”, the “polyreactivity (PSR sort gate)” value is “low polyreactivity”. With “QVQLVESGGGLVQAGGSLRLSCAASVSTFSGYAMGWYRQAPGKERELVAAISSSGGGTYYADSVKGRFTISRDNAKNTVYLQMNSLKPEDTAVFYCAAYKYFLGFVWYDYWGQGTQVTVSS” the entry was “high polyreactivity”; with “QVQLVESGGGLVQAGGSLRLSCAASVSTIARYAMGRYRQAPGKERELVAAISRTGRTYYADSVKGRFTISRDNAKNTVYLQMNSLKPEDTAVYYCNAYYGPRGYGYWGQGTQVTVSS”, “high polyreactivity”. With “QVQLVESGGGLVQAGGSLRLSCAASVSTLRYYAMGWYRQAPGKERELVAAISYSGGSTYYADSVKGRFTISRDNAKNTVYLQMNRLKPEDTAVYYCNAEWGWRRYGSSYVYWGQGTQVTVSS”, the “polyreactivity (PSR sort gate)” value was “high polyreactivity”.

Turning to “QVQLVESGGGLVQAGGSLRLSCAASVYAMGWYRQAPGKERELVAAITDSGSTNYADSVKGRFTISRDNAKNTVYLQMNSLKPEDNAVYYCNADPYYATGSWARLPLYQYDYWGQGTQVTVSS”, the “polyreactivity (PSR sort gate)” value was “low polyreactivity”. With “QVQLVESGGGLVQAGGSLRLSCAASVYGMGWYRQAPGKERELVAAISNGGTTYYADSVKGRFTISRDNAKNTVYLQMNSLKPEDTAVYYCARSYRSDGSRFGYWGQGTQVTVSS” the entry was “low polyreactivity”; with “QVQLVESGGGLVQAGGSLRLSCAATGFIVAWYAMGWYRQAPGKERELVAAISSSVGSTYYADSVKGRFTISRDIAKNTVYLQMNSLKPEDTAVYYCNADEYWASGYDPYDYWGQGTQVTVSS”, “low polyreactivity”; with “QVQLVESGGGLVQAGGSLRLSCAATGFTFEYYAMGWYRKAPGKERELVAAITSGGSTNYADSVKVRFTISRDNAKNTVSLQKNSLKPEDTAVYYCATSGNNYYYALYGYWGQGTQVTVSS”, “low polyreactivity”.
